{"source": "patent US20130101582A1", "about": "“Tiki1 and Tiki2, Wnt Inhibitors” (CHILDREN'S MEDICAL CENTER CORPORATION, priority 2010, published 2013)", "molecules": {"B1": {"name": "Wnt3a: Wnt ligand added to STF reporter cells (protein)", "chain": "SYPIWWSLAVGPQYSSLGSQPILCASIPGLVPKQLRFCRNYVEIMPSVAEGIKIGIQECQHQFRGRRWNCTTVHDSLAIFGPVLDKATRESAFVHAIASAGVAFAVTRSCAEGTAAICGCSSRHQGSPGKGWKWGGCSEDIEFGGMVSREFADARENRPDARSAMNRHNNEAGRQAIASHMHLKCKCHGLSGSCEVKTCWWSQPDFRAIGDFLKDKYDSASEMVVEKHRESRGWVETLRPRYTYFKVPTERDLVYYEASPNFCEPNPETGSFGTRDRTCNVSSHGIDGCDLLCCGRGHNARAERRREKCRCVFHWCCYVSCQECTRVYDVHTCK"}, "B2": {"name": "Tiki2N: Recombinant human Tiki2N, the ectodomain harboring the conserved Tiki domain (protein)", "chain": "RPQPPDGGQCRPPGSQRDLNSFLWTIRRDPPAYLFGTIHVPYTRVWDFIPDNSKAAFQASTRVYFELDLTDPYTISALASCQLLPHGENLQDVLPHELYWRLKRHLDYVKLMMPSWMTPAQRGKGLYADYLFNAIAGNWERKRPVWVMLMVNSLTERDVRFRGVPVLDLYLAQQAEKMKKTTGAVEQVEEQCHPLNNGLNFSQVLFALNQTLLQQESVRAGSLQASYTTEDLIKHYNCGDLSAVIFNHDTSQLPNFINTTLPPHEQVTAQEIDSYFRQELIYKRNERMGKRVMALLRENEDKICFFAFGAGHFLGNNTVIDILRQAGLEVDHTPAGQAIHSPAPQSPAPSPEGTSTSPAPVTPAAAVPEAPSVTPTAPPEDEDPALSPHLLLPDSLSQLEEFGRQRKWHKRQSTHQRPRQFNDLWVRIEDSTTASPPPLPLQPTHSSGTAKPPFQLSDQLQQQDPPG", "modifications": "left off: small tags and cut ends", "notes": "Recombinant human Tiki2N, the ectodomain harboring the conserved Tiki domain"}}, "key": {"nuclear beta-catenin": {"test_system": "nuclear beta-catenin", "test": "Wnt-induced nuclear beta-catenin accumulation in Xwnt8-responding animal cap cells", "type": "in vivo, Xenopus", "conditions": "stage 9 animal cap cells neighbouring Xwnt8-expressing cells; 200 pg mRNA", "procedure": "FIGS. 7A-C are each schematics with accompanying bar graphs showing that Tiki1 inhibits Wnt/β-catenin signaling in both Wnt-producing and Wnt-responding cells. 7A, Tiki1 acts in Xwnt8-producing cells. Xwnt8 mRNA (20 pg) was co-injected with Tiki1 or LDLR mRNA (100 pg) into a single blastomere at the 8-cell stage, while S01234-Luciferase (140 pg) plus TK-Renilla (1.25 pg) reporter DNAs were injected into a neighboring blastomere. 7B, Tiki1 acts in Xwnt8-responding cells. S01234-Luciferase and TK-Renilla reporter DNAs were co-injected with Tiki1 or LDLR mRNA in a single blastomere, while Xwnt8 mRNA was injected into a neighboring blastomere. Luciferase readings were normalized to Renilla. 7C, Tiki1 reduces nuclear beta-catenin levels in Xwnt8-responding cells. […] Only cells within the distance of five cell bodies from Xwnt8-expressing cells were counted in any given field. […]\nSecondly Wnt-induced nuclear beta-catenin accumulation was monitored. […] In confocal microscopy Xwnt8-expressing cells were traced by RFP (red), whereas Wnt-responding cells that expressed Tiki1 or LDLR were traced by FLD (green), and naive cells descended from uninjected blastomeres lacked green or red fluorescence. […]"}, "[1]": {"test_system": "Super-TOPFLASH (STF) luciferase reporter", "test": "Super-TOPFLASH (STF) luciferase reporter induction in STF cells", "type": "cell-based", "conditions": "6-hour treatment; not shown", "procedure": "A high throughput screen (HTS) is used to identify compounds that enhance LRP5/6 signaling as potential therapeutics for osteoporosis or cellular proliferative disorders. We employ a Wnt responsive cell line carrying a Super-TOPFLASH (STF) luciferase reporter (Wnt-responsive) (Major et al. Science. 2007. 316:1043-6). These STF cells grow as an adherent monolayer making them ideally suited for 384-well-plate screening format. […] Different conditions are tested and an acceptable z′ score of 0.5 or above (z′ measures HTS quality and reproducibility (Zhang et al. J Biomol Screen. 1999. 4:67-73)) is achieved."}, "Wnt3a": {"target": "Wnt3a (Mus musculus, UniProt P27467)", "sequence (P27467 19-352)": "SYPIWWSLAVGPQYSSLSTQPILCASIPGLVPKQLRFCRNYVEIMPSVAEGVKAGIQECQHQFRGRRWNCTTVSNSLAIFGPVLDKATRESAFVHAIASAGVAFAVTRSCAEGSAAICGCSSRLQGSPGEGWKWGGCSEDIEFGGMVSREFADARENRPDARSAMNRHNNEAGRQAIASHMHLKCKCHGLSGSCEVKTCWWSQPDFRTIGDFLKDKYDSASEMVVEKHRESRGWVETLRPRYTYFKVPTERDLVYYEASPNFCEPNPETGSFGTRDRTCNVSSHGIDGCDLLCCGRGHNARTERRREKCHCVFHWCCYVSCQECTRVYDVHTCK", "test": "Triton X-114 phase separation of Wnt3a secreted from Tiki-expressing cells", "type": "cell-based", "design": "expressed in transfected cells; host or cells: mouse L cells (Wnt3a-expressing); HEK293T", "conditions": "HEK293T cells", "excerpt": "FIG. 6A is a gel showing that Tiki inactivates Wnt3a by regulating Wnt3a acylation/palmitoylation. A Triton X-114 phase separation experiment is shown in 6A. […] T, total; Aq, aqueous; De, detergent.\nFIG. 6B is a gel showing that Wnt3a secreted from Tiki1 or Tiki2 but not GFP-expressing HEK293T cells partitioned in the aqueous phase.\nC77 palmitoylation is required for Wnt3a activity (Willert, K. et al., Nature 423, 448-452 (2003)) and binding to both Fz and LRP6 (Komekado, H. et al., Genes Cells 12, 521-534 (2007); Cong, F. et al., Development 131, 5103-5115 (2004)), while S209 acylation is critical for Wnt3a secretion (Takada, R. et al., Dev Cell 11, 791-801 (2006)). Thus Tiki proteins may affect C77 palmitoylation but not S209 acylation. The palmitate adduct at C77 is the primary contributor to Wnt3a hydrophobicity because palmitoylated Wnt3a is partitioned in the Triton X-114 detergent phase whereas Wnt3a lacking the palmitate is soluble in the aqueous phase (Willert, K. et al., Nature 423, 448-452 (2003); Komekado, H. et al., Genes Cells 12, 521-534 (2007))."}, "[2]": {"target": "T1, Recombinant human WNT3A protein (Homo sapiens, UniProt P56704)", "test": "Acyl-biotinyl exchange (ABE) analysis of WNT3A after in vitro incubation", "type": "biochemical", "conditions": "compared with WNT3A incubated with Krm2N", "procedure": "FIG. 6I is a gel showing the results of ABE analysis of WNT3A after in vitro incubation with Krm2N or Tiki2N Biotinylation of WNT3A was much reduced after incubation with Tiki2N compared to that of WNT3A incubated with Krm2N.\nBiotinylation of Wnt3a secreted in the presence of Tiki2 was much reduced compared to that of Wnt3a from control cells (FIG. 6C). This reduction of available thioester linkage indicates depalmitoylation of Wnt3a at a cysteine residue, e.g., C77, in the presence of Tiki2\n(§1) Recombinant human Tiki2N, which is the ectodomain harboring the conserved Tiki domain (FIG. 6J), was purified, via tandem affinity procedures from HEK293T cell extracts or CM."}, "[3]": {"target": "T1, Recombinant human WNT3A protein", "test": "In vitro incubation of recombinant WNT3A with purified protein, Triton X-114 phase separation", "type": "biochemical", "conditions": "purified protein incubated with recombinant human WNT3A", "procedure": "FIG. 6G is a gel showing that recombinant WNT3A was incubated with Krm2N or Tiki2N purified from WCL (top) or from CM (bottom) and was subjected to Triton X-114 phase separation.\nFIG. 6H is a gel showing that Recombinant WNT3A was incubated with Krm2N or Tiki2N or Tiki2NΔ. purified from WCL and was subjected to Triton X-114 phase separation.\nas §1"}}, "data": [{"molecule": "LDLR: negative control, expressed from injected LDLR mRNA", "values": [{"measurement": "Cells displaying nuclear beta-catenin", "setting": "nuclear beta-catenin", "result": 80, "unit": "%"}]}, {"molecule": "B1", "values": [{"measurement": "Induction of the STF reporter", "setting": "[1]", "result": "30-40 folds"}]}, {"molecule": "B2", "values": [{"measurement": "Partitioning of secreted Wnt3a in Triton X-114 phase separation", "setting": "Wnt3a", "result": "partitioned exclusively in the aqueous phase"}, {"measurement": "Biotinylation of WNT3A in ABE assay after in vitro incubation", "setting": "[2]", "result": "biotinylated to a much less extent"}, {"measurement": "Partitioning of WNT3A in Triton X-114 phase separation after in vitro incubation", "setting": "[3]", "result": "became segregated in the aqueous phase"}]}]}
